Data taken from the supplement of paper PMC9112550, “Optimization of the antimicrobial peptide Bac7 by deep mutational scanning” (BMC Biology, 2022).

Test system: Escherichia coli TOP10
Experiment: shrunken log2 fold change of peptide-encoding DNA abundance (4.5 h post-induction vs induction); higher = less antimicrobial activity (less host growth inhibition)
Details: time post-induction: 4.5 h; library: site-saturation at positions 5, 18, 19, 20
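Further: peptides expressed intracellularly from a pBAD plasmid library in pooled LB shake-flask culture, induced with 0.3% L-arabinose, DNA abundance read by NGS, three biological replicates, DESeq2 with apeglm shrinkage.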

| Sequence | shrunken log2 fold change |
| --- | --- |
| RRIRHRPPRLPRPRPRPQRKPRP | -0.191 |
| RRIRWRPPRLPRPRPRPWPWPRP | -0.0737 |
| RRIRNRPPRLPRPRPRPAFYPRP | -0.065 |
| RRIRFRPPRLPRPRPRPFISPRP | -0.691 |
| RRIRFRPPRLPRPRPRPKWKPRP | -0.0366 |
| RRIRRRPPRLPRPRPRPHRHPRP | 0.0704 |
| RRIRPRPPRLPRPRPRPFESPRP | 0.17 |
| RRIRLRPPRLPRPRPRPCSMPRP | -0.00844 |
| RRIRRRPPRLPRPRPRPDTMPRP | 0.0801 |
| RRIRVRPPRLPRPRPRPQVEPRP | -0.272 |
| RRIRGRPPRLPRPRPRPFTEPRP | 0.104 |
| RRIRFRPPRLPRPRPRPLPCPRP | -0.199 |
| RRIRHRPPRLPRPRPRPWILPRP | -0.223 |
| RRIRMRPPRLPRPRPRPWGLPRP | 0.0219 |
| RRIRQRPPRLPRPRPRPIPWPRP | 0.0351 |
| RRIRHRPPRLPRPRPRPVTHPRP | -0.12 |
| RRIRRRPPRLPRPRPRPSQMPRP | 0.0447 |
| RRIRNRPPRLPRPRPRPSYRPRP | -0.102 |
| RRIRSRPPRLPRPRPRPGAMPRP | 0.724 |
| RRIRRRPPRLPRPRPRPNNEPRP | -0.246 |
| RRIRARPPRLPRPRPRPSTFPRP | 0.435 |
| RRIRWRPPRLPRPRPRPIKMPRP | 0.212 |
| RRIRKRPPRLPRPRPRPFDCPRP | -0.128 |
| RRIRERPPRLPRPRPRPNEQPRP | -0.215 |
| RRIRARPPRLPRPRPRPYSIPRP | -0.374 |

| Sequence | shrunken log2 fold change |
| --- | --- |
| RRIRSRPPRLPRPRPRPYEKPRP | -1.08 |
| RRIRNRPPRLPRPRPRPIGNPRP | 0.0106 |
| RRIRERPPRLPRPRPRPTMRPRP | 0.732 |
| RRIRSRPPRLPRPRPRPMVRPRP | 0.00927 |
| RRIRDRPPRLPRPRPRPQQWPRP | 0.0413 |
| RRIRLRPPRLPRPRPRPSHEPRP | 0.031 |
| RRIRPRPPRLPRPRPRPMPIPRP | 0.0579 |
| RRIRHRPPRLPRPRPRPPLMPRP | -0.187 |
| RRIRCRPPRLPRPRPRPNQKPRP | 0.184 |
| RRIRLRPPRLPRPRPRPWIHPRP | -0.487 |
| RRIRNRPPRLPRPRPRPIYCPRP | -0.858 |
| RRIRSRPPRLPRPRPRPGEMPRP | 0.336 |
| RRIRCRPPRLPRPRPRPHFHPRP | -0.712 |
| RRIRVRPPRLPRPRPRPGCQPRP | -0.0161 |
| RRIRFRPPRLPRPRPRPTFSPRP | -0.0425 |
| RRIRNRPPRLPRPRPRPSVDPRP | -0.0699 |
| RRIRHRPPRLPRPRPRPLCAPRP | -0.0531 |
| RRIRKRPPRLPRPRPRPMWAPRP | 0.184 |
| RRIRERPPRLPRPRPRPVPTPRP | 0.116 |
| RRIRGRPPRLPRPRPRPKQSPRP | 0.887 |
| RRIRWRPPRLPRPRPRPHMMPRP | -0.349 |
| RRIRWRPPRLPRPRPRPFLYPRP | -0.0978 |
| RRIRVRPPRLPRPRPRPQVPPRP | -0.205 |
| RRIRFRPPRLPRPRPRPEYCPRP | 0.0467 |
| RRIRFRPPRLPRPRPRPAPMPRP | 0.282 |

| Sequence | shrunken log2 fold change |
| --- | --- |
| RRIRQRPPRLPRPRPRPPKRPRP | 0.487 |
| RRIRGRPPRLPRPRPRPPFHPRP | 0.24 |
| RRIRKRPPRLPRPRPRPFPVPRP | -0.288 |
| RRIRKRPPRLPRPRPRPVATPRP | 0.635 |
| RRIRIRPPRLPRPRPRPVCVPRP | -0.279 |
| RRIRCRPPRLPRPRPRPVFWPRP | 0.138 |
| RRIRKRPPRLPRPRPRPWMSPRP | -0.0718 |
| RRIRKRPPRLPRPRPRPYMNPRP | -0.505 |
| RRIRARPPRLPRPRPRPFCFPRP | 0.42 |
| RRIRARPPRLPRPRPRPNFMPRP | 0.186 |
| RRIRARPPRLPRPRPRPRCSPRP | 0.205 |
| RRIRWRPPRLPRPRPRPYFFPRP | -0.245 |
| RRIRARPPRLPRPRPRPGLFPRP | 0.601 |
| RRIRKRPPRLPRPRPRPDEQPRP | 2.64 |
| RRIRFRPPRLPRPRPRPYRMPRP | -0.571 |
| RRIRYRPPRLPRPRPRPMFMPRP | -1.22 |
| RRIRRRPPRLPRPRPRPSADPRP | 0.247 |
| RRIRSRPPRLPRPRPRPIYWPRP | -0.0771 |
| RRIRPRPPRLPRPRPRPMNCPRP | -0.138 |
| RRIRDRPPRLPRPRPRPGVTPRP | 0.596 |
| RRIRWRPPRLPRPRPRPHKHPRP | -0.117 |
| RRIRHRPPRLPRPRPRPIQLPRP | 0.128 |
| RRIRRRPPRLPRPRPRPREGPRP | 1.33 |
| RRIRARPPRLPRPRPRPEAIPRP | 0.839 |
| RRIRQRPPRLPRPRPRPTTPPRP | 0.402 |

| Sequence | shrunken log2 fold change |
| --- | --- |
| RRIRQRPPRLPRPRPRPVKHPRP | -0.629 |
| RRIRCRPPRLPRPRPRPIVWPRP | 0.102 |
| RRIRFRPPRLPRPRPRPLWNPRP | -0.89 |
| RRIRIRPPRLPRPRPRPVPCPRP | -0.00376 |
| RRIRWRPPRLPRPRPRPPGCPRP | 0.975 |
| RRIRCRPPRLPRPRPRPKVFPRP | 0.0792 |
| RRIRVRPPRLPRPRPRPAFEPRP | 0.125 |
| RRIRVRPPRLPRPRPRPQCCPRP | -0.185 |
| RRIRDRPPRLPRPRPRPDRSPRP | 0.0975 |
| RRIRVRPPRLPRPRPRPGHFPRP | 0.136 |
| RRIRKRPPRLPRPRPRPYHIPRP | -0.323 |
| RRIRTRPPRLPRPRPRPEPRPRP | 0.482 |
| RRIRPRPPRLPRPRPRPQGPPRP | 0.0552 |
| RRIRNRPPRLPRPRPRPVMMPRP | -0.198 |
| RRIRKRPPRLPRPRPRPVITPRP | -0.249 |
| RRIRVRPPRLPRPRPRPKYTPRP | -0.421 |
| RRIRERPPRLPRPRPRPSFKPRP | -0.401 |
| RRIRGRPPRLPRPRPRPDWGPRP | 0.242 |
| RRIRHRPPRLPRPRPRPQSAPRP | -0.116 |
| RRIRCRPPRLPRPRPRPPESPRP | 0.347 |
| RRIRLRPPRLPRPRPRPRNSPRP | -0.051 |
| RRIRCRPPRLPRPRPRPSAQPRP | 0.336 |
| RRIRLRPPRLPRPRPRPRVSPRP | -0.0787 |
| RRIRCRPPRLPRPRPRPIDAPRP | -0.268 |
| RRIRWRPPRLPRPRPRPAPTPRP | 0.695 |

| Sequence | shrunken log2 fold change |
| --- | --- |
| RRIRQRPPRLPRPRPRPMSIPRP | -0.00929 |
| RRIRDRPPRLPRPRPRPYCEPRP | -0.42 |
| RRIRFRPPRLPRPRPRPMWQPRP | -0.00366 |
| RRIRRRPPRLPRPRPRPCSWPRP | -0.124 |
| RRIRTRPPRLPRPRPRPFCYPRP | -0.24 |
| RRIRPRPPRLPRPRPRPPSLPRP | 0.381 |
| RRIRRRPPRLPRPRPRPEDSPRP | 0.0554 |
| RRIRFRPPRLPRPRPRPRCPPRP | 0.262 |
| RRIRWRPPRLPRPRPRPAIVPRP | 0.144 |
| RRIRMRPPRLPRPRPRPAFQPRP | 0.0845 |
| RRIRPRPPRLPRPRPRPRAPPRP | 0.683 |
| RRIRQRPPRLPRPRPRPPTHPRP | 0.106 |
| RRIRGRPPRLPRPRPRPINDPRP | -0.211 |
| RRIRSRPPRLPRPRPRPKMAPRP | -0.13 |
| RRIRKRPPRLPRPRPRPHLQPRP | 0.224 |
| RRIRWRPPRLPRPRPRPMCPPRP | -0.232 |
| RRIRLRPPRLPRPRPRPMEFPRP | -0.00133 |
| RRIRFRPPRLPRPRPRPREYPRP | -0.415 |
| RRIRYRPPRLPRPRPRPSWPPRP | -0.613 |
| RRIRIRPPRLPRPRPRPTMDPRP | -0.118 |
| RRIRVRPPRLPRPRPRPLTHPRP | -0.439 |
| RRIRFRPPRLPRPRPRPKPHPRP | 1.81 |
| RRIRLRPPRLPRPRPRPNYGPRP | -0.0135 |
| RRIRHRPPRLPRPRPRPNLVPRP | -0.00912 |
| RRIRPRPPRLPRPRPRPFTWPRP | -0.236 |

| Sequence | shrunken log2 fold change |
| --- | --- |
| RRIRCRPPRLPRPRPRPGGVPRP | 0.42 |
| RRIRSRPPRLPRPRPRPHLVPRP | -0.118 |
| RRIRCRPPRLPRPRPRPMALPRP | -0.0797 |
| RRIRNRPPRLPRPRPRPRSIPRP | -0.288 |
| RRIRQRPPRLPRPRPRPSKKPRP | 0.0216 |
| RRIRFRPPRLPRPRPRPDDVPRP | -0.0133 |
| RRIRFRPPRLPRPRPRPKWCPRP | -0.183 |
| RRIRMRPPRLPRPRPRPPKQPRP | 0.742 |
| RRIRERPPRLPRPRPRPGTGPRP | 0.229 |
| RRIRGRPPRLPRPRPRPWTWPRP | 0.339 |
| RRIRCRPPRLPRPRPRPNRKPRP | -0.127 |
| RRIRCRPPRLPRPRPRPPRRPRP | 0.909 |
| RRIRLRPPRLPRPRPRPVWVPRP | -0.0407 |
| RRIRCRPPRLPRPRPRPEAPPRP | 0.755 |
| RRIRLRPPRLPRPRPRPIDEPRP | -0.178 |
| RRIRKRPPRLPRPRPRPIMTPRP | -0.111 |
| RRIRARPPRLPRPRPRPHHDPRP | -0.0472 |
| RRIRWRPPRLPRPRPRPGERPRP | 0.303 |
| RRIRGRPPRLPRPRPRPQYIPRP | -0.27 |
| RRIRARPPRLPRPRPRPTIWPRP | 0.206 |
| RRIRERPPRLPRPRPRPGKEPRP | 0.0125 |
| RRIRERPPRLPRPRPRPMRIPRP | 0.257 |
| RRIRLRPPRLPRPRPRPGCPPRP | 0.0643 |
| RRIRRRPPRLPRPRPRPDKSPRP | 0.00757 |
| RRIRPRPPRLPRPRPRPALSPRP | 0.139 |
